# From the Human Domainome abundance scans (Beltran et al. 2025)
# ± gives the uncertainty stated by the source.
# B1: V(D)J recombination-activating protein 2, residues 415 to 491; numbered along this chain, P55895 (parent)
# chain: YWITCCPTCDVDINTWVPFYSTELNKPAMIYCSHGDGHWVHAQCMDLAERTLIHLSAGSNKYYCNEHVEIARALHTP
# Variants of: B1
# Assay: abundance fitness (aPCA) (normalised: wild type 0, dead -1); higher = more abundant; growth selection in yeast, the domain comes from the species named
# Conditions: Homo sapiens
row,Variant,abundance fitness
1,YWITCCPTCDVDINTWVPFYSTELNKPAMIYCSHGDGHWVHAQCMDLAERTLDHLSAGSNKYYCNEHVEIARALHTP [I53D],-0.184 ± 0.25
2,YWITCCPDCDVDINTWVPFYSTELNKPAMIYCSHGDGHWVHAQCMDLAERTLIHLSAGSNKYYCNEHVEIARALHTP [T8D],-0.279 ± 0.35
3,YWITCCPTCDVDINTWVPFYSTELNKPAMIECSHGDGHWVHAQCMDLAERTLIHLSAGSNKYYCNEHVEIARALHTP [Y31E],-0.018 ± 0.095
4,YWITCCPTCDVDINTWVPFYSTELNKPAMIYCSHGDGHWQHAQCMDLAERTLIHLSAGSNKYYCNEHVEIARALHTP [V40Q],-0.626 ± 0.24
5,YWITCCPTCDVDIKTWVPFYSTELNKPAMIYCSHGDGHWVHAQCMDLAERTLIHLSAGSNKYYCNEHVEIARALHTP [N14K],-0.004 ± 0.42
6,YWITCCPTCDVDINTWVPFYSTELNKPAMIYCSHGDGHWVHAQCMDLAERTLIHLSAGSNKYYCNEVVEIARALHTP [H67V],-0.387 ± 0.048
7,YWITCCPTCDVDINTWVPFYSTELNKPAMIYSSHGDGHWVHAQCMDLAERTLIHLSAGSNKYYCNEHVEIARALHTP [C32S],-0.683 ± 0.13
8,YWITCCPTCDVDINTWVPFYSTELNKPAMIYRSHGDGHWVHAQCMDLAERTLIHLSAGSNKYYCNEHVEIARALHTP [C32R],-0.967 ± 0.14
9,YWITCCPTCDVDINTWVPFYSTELNKPAMIYCSHGDGHWVHAQCMDLAERTLIHLSAGSNKYYCNWHVEIARALHTP [E66W],-0.192 ± 0.078
10,YWITCCPTCDVDINTWVPFYSTELNKPAMIYCSHGDGHWVHAQCMDLAERTLIHLSAGSNKYYCNIHVEIARALHTP [E66I],-0.17 ± 0.11
11,YWITCCPTCDVDINTWVPFYSTELNKPAMIYCSHGDGHWVHAQCMDLAERTLIHLCAGSNKYYCNEHVEIARALHTP [S56C],-0.099 ± 0.11
12,YWITCCPTCDVDINTWVPFYSTELNKPAAIYCSHGDGHWVHAQCMDLAERTLIHLSAGSNKYYCNEHVEIARALHTP [M29A],-0.575 ± 0.33
13,YWITCCPTCDVDINTWVPFYSTELNKPAMIYCRHGDGHWVHAQCMDLAERTLIHLSAGSNKYYCNEHVEIARALHTP [S33R],-0.147 ± 0.04
14,YWITCCPTCDVDINTWVPFYSTELNKPAMIYCSHGDGHWVHAQCVDLAERTLIHLSAGSNKYYCNEHVEIARALHTP [M45V],-0.217 ± 0.064
15,YWITCCPTCDVDINTWVPFVSTELNKPAMIYCSHGDGHWVHAQCMDLAERTLIHLSAGSNKYYCNEHVEIARALHTP [Y20V],-0.719 ± 0.29
16,YWITCCPTCDVDINTWVPFYSTELNKPAMIYCSHGDGHWVHAQCMDLAERTLIHLSAGSNKYDCNEHVEIARALHTP [Y63D],-0.207 ± 0.096
17,YWITCCPTCDVDINTWVPFYSTELNKPAMIYCSHGDGHWVHAQCMDLAERTLIHLSAGSNKYRCNEHVEIARALHTP [Y63R],-0.049 ± 0.067
18,YWITCCPTCDVDINTWVPFYSTELNKPAMIYCSHGDGHWVHAQCMDLAERTLIHLSAGSNKHYCNEHVEIARALHTP [Y62H],-0.377 ± 0.14

row,Variant,abundance fitness
1,YWITCKPTCDVDINTWVPFYSTELNKPAMIYCSHGDGHWVHAQCMDLAERTLIHLSAGSNKYYCNEHVEIARALHTP [C6K],-0.28 ± 0.16
2,YWITCCPTCDVDINTWVPFYSTELNKPAMIYCSLGDGHWVHAQCMDLAERTLIHLSAGSNKYYCNEHVEIARALHTP [H34L],-0.073 ± 0.059
3,YWITCCPTCDVDINTWVPFYSTELNKPAMIYCSHGDGHWVHAQCMDLAERTLIHLSAGSNGYYCNEHVEIARALHTP [K61G],0.06 ± 0.12
4,YWITCCPTCDVDINTWVPFYSTELNKPAMIYCSHGDGHWVHAQCMDLAERTLIHLSAGSNKYYCNEHKEIARALHTP [V68K],-0.115 ± 0.14
5,YWITCCPTCDVDINTWVPFYSTELNKPAMIYCSHGDGHWVHAQCMDLAERTLIHLSAGSNKYYCNEHIEIARALHTP [V68I],-0.318 ± 0.2
6,YWITCCPTCDVDINTWVPFYSTELNKPAMIYCSHGDGHWVHAQCMDLAERTLIHLSAGSNKYYCNEHAEIARALHTP [V68A],-0.173 ± 0.14
7,YWITCCPTCDVDINTWNPFYSTELNKPAMIYCSHGDGHWVHAQCMDLAERTLIHLSAGSNKYYCNEHVEIARALHTP [V17N],-0.687 ± 0.44
8,YWITCCPTCDVDINTWVPFYSTELNKPAMIYCSHGMGHWVHAQCMDLAERTLIHLSAGSNKYYCNEHVEIARALHTP [D36M],-0.107 ± 0.2
9,YWITCCPTCDVDINTWVPFYSTELNKPAMIYCSHGRGHWVHAQCMDLAERTLIHLSAGSNKYYCNEHVEIARALHTP [D36R],-0.246 ± 0.094
10,YWITCCPTCDVDINTWVPFYSTELNKPAMIYCSHGNGHWVHAQCMDLAERTLIHLSAGSNKYYCNEHVEIARALHTP [D36N],-0.211 ± 0.23
11,YWITCCPTCDVDINTWVPFYSTELNKPAMIYCSHGHGHWVHAQCMDLAERTLIHLSAGSNKYYCNEHVEIARALHTP [D36H],-0.214 ± 0.33
12,YWITCCPTCDVDINTWVPFYSTELNKPAMIYCSHGDGHWVHAQCMDGAERTLIHLSAGSNKYYCNEHVEIARALHTP [L47G],-0.458 ± 0.04
13,YWITCCPTCDVDINTWVPFYSTELNKPAMIYCSHGDGHWVHAQCMDLAERTLIHLSAGSNKYYCNEHVEDARALHTP [I70D],0.112 ± 0.14
14,YWITCCPTCDVDINTWVPFYSTELNKPAMIYCSHGDGHWVHAQCMDLAERTLIHLSATSNKYYCNEHVEIARALHTP [G58T],-0.199 ± 0.085
15,YWITCCPTCDVDINTWVPFYSTELNKPAMIYCSHGDGHWVHAQCMDLAERTLIHLSAGSNKYYCNEHVEIARMLHTP [A73M],-0.121 ± 0.1
16,YWITGCPTCDVDINTWVPFYSTELNKPAMIYCSHGDGHWVHAQCMDLAERTLIHLSAGSNKYYCNEHVEIARALHTP [C5G],-0.392 ± 0.2
17,YWITCCPTCDVDINTWVPFYSTELNKPAMIYCSHGDGHWVHAQCMDLAERTLITLSAGSNKYYCNEHVEIARALHTP [H54T],-0.12 ± 0.083
18,YWITCCPTCDVDINTWVPFYSTELNKPAMIYCSHGDGHWVHAQCMDLAERTLILLSAGSNKYYCNEHVEIARALHTP [H54L],0.016 ± 0.06
